According to the DeepSol protein solubility set:

Test: soluble on expression in E. coli; label from the status in PepcDB or PDB records

Sequence | soluble on expression in E. coli
MSSTAVQPPPPVPPPPPSAVPSAGKGIHSKLYNGMIGAADKFVPAKLRPLWMHPAGPKTIFFWAPVFKWGLVAAGLSDLARPADTISVSGCAALAATGIIWSRYSLVIIPKNYSLFAVNLFVGITQVVQLARAYHYHQSQEKLKQEQQQPAVQNLEHHHHHH | not soluble
MSSTECYGAPPHNYYQDWPTTHSYYPSVPSSYSPLNHHPADIWAAHPSNYIMGNGHVSPPATASGLSPPASRSSNSSAELPTGVTASQHNTYKWMHTKRSQRPAAPKKKVIDENGTNRTNFTTHQLTELEKEFHTAKYVNRTRRTEIASNLKLQEAQVKIWFQNRRMKEKKREKEKAFLARNTWESNSPTSSCSGEDVKNFK | not soluble
MSSTMKDTQEAPVRWSRNWTPDAIRALVDQDNGKLDARIYADQDLYQLELERVFGRSWLMLGHETHIPKIGDYLTTYMGEDPVIMVRQKDQSIKVFLNQCRHRGMRIVRSDGGNAKAFTCTYHGWAYDIAGNLVNVPFEKEAFCDKKEGDCGFDKADWGPLQARVETYKGLVFANWDPEAPDLKTYLSDAMPYMDVMLDRTEAGTEAIGGIQKWVIPCNWKFAAEQFCSDMYHAGTMSHLSGVLAGLPPEMDLTQIQLSKNGNQFRSAWGGHGAGWFINDSSILLSVVGPKITQYWTQGPAAEKAARRVPQLPILDMFGQHMTVFPTCSFLPGINTIRTWHPRGPNEVEVWAFVLVDADAPEDIKEEFRLQNIRTFNAGGVFEQDDGENWVEIQRVMRGHKAKSTSLCAKMGLNVPNKNNPAYPGKTAYVYAEEAARGMYHHWSRMMSEPSWDTLKP | soluble
MSSVAVLTQESFAEHRSGLVPQQIKVATLNSEEESDPPTYKDAFPPLPEKAACLESAQEPAGAWSNKIRPIKASVITQVFHVPLEERKYKDMNQFGEGEQAKICLEIMQRTGAHLELSLAKDQGLSIMVSGKLDAVMKARKDIVARLQTQASATVPIPKEHHRFVIGKNGEKLQDLELKTATKIQIPRPDDPSNQIKITGTKEGIEKARHEVLLISAEQDKRAVERLEVEKAFHPFIAGPYNRLVGEIMQETGTRINIPPPSVNRTEIVFTGEKEQLAQAVARIKKIYEEKKKKTTTIAVEVKKSQHKYVIGPKGNSLQEILERTGVSVEIPPSDSISETVILRGEPEKLGQALTEVYAKVASSKIKLCSDNS | not soluble
MSSYANHQALAGLTLGKSTDYRDTYDASLLQGVPRSLNRDPLGLKADNLPFHGTDIWTLYELSWLNAKGLPQVAVGHVELDYTSVNLIESKSFKLYLNSFNQTRFNNWDEVRQTLERDLSTCAQGKISVALYRLDELEGQPIGHFNGTCIDDQDITIDNYEFTTDYLENATCGEKVVEETLVSHLLKSNCLITHQPDWGSLQIQYRGRQIDREKLLRYLVSFRHHNEFHEQCVERIFNDLLRFCQPEKLSVYARYTRRGGLDINPWRSNSDFVPSTTRLVRQ | soluble
MSTDITPSSAPQCPDHIVFEHVTKEFRTRSGTVRALDDVSLAIKRGSISAVIGHSGAGKSTLVRLINGLETPTRGRVLVDGTDVSQLSDKAMRPLRADIGMIFQQFNLFGSRTIYDNVAYPLKLAHWKKADEKKRITELLSFVGLTSKAWDHPDQLSGGQKQRVGIARALATKPSILLADESTSALDPETTADVLSLLKRVNAELGVTVVVITHEMEVVRSIAQQVSVLAAGHLVESGSARQVFAHPQSETTQRFLATIIGQHPNGEEQARLQSENPHARLVDVSSVASHSFGDALARISHTGASFQIVHGGVIEVHDGSLGNYTVALSGPAQAVEQAVQILEEVSNSAAPTTSATVPTPTEEAHLEHHHHHH | not soluble
MSTENDVSEENNSELDDVEDAKQDDRRRSTTVIMTMNVTTVPATESEGVRRNGSVRRRLSKQNATIEEPISLLSISDSPSENSDTTVPCIEEHPEEGKEEEKPAESSDVSKLRPPGLAQNKLWSTSKSLSRESTGTEYSDRSGIDLRNFVDRTLHKSEEDRKQLLEFEKQLKELILDDSTQSKRFELPSSYHRMLLHRCAAWFGLDHNVTNKQTDIVVNKSEKTKIPDDNFTDYIRHDNYVEDRLKRQNTCGSRKELHHMESFGDHSTSQYGSQASLNHDLLMMRRAQSFDVAAVTGPSVIQPQSPHHVRGLPMRQLSLNCPQQSMVTAPMSGPQGHQWAPQRSFDCSNNSYLCTGKHPMMRKAESFGGMANGISHGCYEQSVPVVCGTPPSVMVHHHHHHAHIQQPPTSNYTGYQVFEEMSMPSSNYQEPGMCSPGGTYYEYVPQPVVQPQQYARPIRYMPQDYRRPQGVQYMYGPPPPQQYMQYQPMVHPEVEVIVDPVQTQPFPQVSHFVLPDQQQGYSSSHQAETANSFIKASIDGGYGSMNQDVENAEKVEEV | not soluble
